Reference: the nanobody polyreactivity screen of Harvey et al. (2022)

Assay: yeast display, Sf9 membrane polyspecificity reagent, FACS + sequencing; frameworks hold sequencing errors
Summary of the method: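 A synthetic nanobody library was expressed on Saccharomyces cerevisiae BJ5465 by galactose induction for 36–48 hours. The library was stained for 1 hour at 4 °C with 10% biotinylated, detergent-solubilized Sf9 membrane reagent and enriched with streptavidin microbeads before FACS. Low and high (top ~1%) gates were set on anti-HA fluorescence for expression and streptavidin fluorescence for reagent binding, and each polyreactivity label reflects the gate of origin.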

QVQLVESGGGLVQAGGSLRLSSAASGSTFAFYDMGWYRQAPGKERELVAGISSSGSTYYADSVKGRFTISRDNAKNTVYLQMNSLKPEDTAVYYCAAVLSVRVYGYDYWGQGTQVTVSS
polyreactivity (PSR sort gate): low polyreactivity

QVQLVESGGGLVQAGGSLRLSCAASGRIFPSYAMGRYRQAPGKERELVAAISRSGGRTYYADSVKGRFTISRDNAKNTVYFQMNSLKPEDTAVYYCARYGPYQSSYHYDYWGQGSQVTVSS
polyreactivity (PSR sort gate): high polyreactivity

QVQLVESGGGLVQAGGSLRLSCADSGFTFSWYTMGWYRQAPGKERELVAAITVSGGSTYYADSVKGRFTISRDYAKNTVYLQMNSLKPEDTAVYYCNAQDPFTYYSSSPTYDYWGQGTQVTVSS
polyreactivity (PSR sort gate): low polyreactivity

QFQLVESWGGLVQAGGSLRLSCAASGYIFGYVMGWYRQAPGKERELVAAITYSSGNTYYADSVKGRFTISRDNAKNTVYLQMNSLKPEDTAVYYCAKQAYYKGRLAYGYWGQATQVTVSS
polyreactivity (PSR sort gate): high polyreactivity

QVQLVETGGGLVQAGGSLRLSCAASGNTFHSNAMGCYSQAPGKERELVAAITPSDGDPYYADSVKGRFTISRDNAKNTVYLQMNSLKPEDTAVYYCAAEDDPGEYEYWGQGTQVTVSS
polyreactivity (PSR sort gate): low polyreactivity

QVQLVESGGGLVQAGGSLRLSCAASGRTFYRNAMGWYRQAPGKERELVASIRRNGGSTYYADSVKGRFTISRDNAKNTVYLQMNSLKPEDTAVYYCAAKFYWRGQSFRSGNFYWGQGTQVTVSS
polyreactivity (PSR sort gate): high polyreactivity

QVQLVESGGGLVQAGGSLRLSCAASGSIFYRNAMGWYRQAPGKERELVAAISSDGSTNYADSVKGRFTISRDNAKNTVYLQMNSLKPEDTAVYYCAAPWTHILDYWGQGTQVTVSS
polyreactivity (PSR sort gate): low polyreactivity

QVQLVESGGGLVQAGGSLRIICAASGYIFVRNAMGWYRQAPGKERELVAAISCSGGSTYYADSVKGRFTISRDNAKNTVFLQMNSLKPEDTAVYSCAADYATVTWRGIAYDYWGQGTQVTVSS
polyreactivity (PSR sort gate): low polyreactivity

QVQLVESGGGLVQAGGSLSLSCAASGSIFGENAKGWYRQAPGKERELVAAITWGGTSTYYADSVKGRFTISRDNAKNTVYLQMNSLKPEDTAVYYCNTPRYVRRQGVKRYDYWGQGTQVTVSS
polyreactivity (PSR sort gate): low polyreactivity

QVQLVESCGGLVQAGGSLRLSCAASGSTFVVNAMGGYRQAPGKERELVADISFTGDSTFYADSVKGRFTISRDNAKNTVYLEMNSLKPDDTAVYYCAADFRRVFSKYSYYLYFDFDYWGQGTQVTVSS
polyreactivity (PSR sort gate): low polyreactivity

QVQLVESGGGLVQAGGSLRLSCAASGFIFVRYAMGWYRQAPGKERELVAAISWRGGSTYFADSVKGRFTISRDNAKNTVYLQMNSLKPEDTAVYYCAAVTWVHRYSRFNPFVAFDYWGQGTQVTVSS
polyreactivity (PSR sort gate): high polyreactivity

QVQLVESGGGLVQAGGSLRLRCAASGSTFAYYAMGWYRQAPGKERELVAAISSGGSTYYADSVKGRFTISRDNAKNTVYIQMNSLKAEETAVYYCNKLRVVKFKRYEFGEWGQGTQVTVSS
polyreactivity (PSR sort gate): low polyreactivity

QVQLVESGGGLVQAGGSLRLSCAASGGTFPRYAMGWYRQAPGKERELVAAINQSGGRTYYADSVKGRFTISRDNAKNTVYLQMNSLKPEDTADYYCAAGYGWRTSYLSYGYWGQGTQVTVSS
polyreactivity (PSR sort gate): high polyreactivity

QVQLVESGGGLVQAGGRLRLSCAASGITFDLYAMGWYSQAPGKERELVAAISISSTSTYYADSVKGRFTISRDYEKNTVYLQMNSLKPEDTAVYYCNAVPSSKTFWFDYWGQGTQVTVSS
polyreactivity (PSR sort gate): low polyreactivity

QVQLVESGGGLVQAGGSLRLSCAASGFIIPYYAMGWYRQAPGKERELVAAISRSGGSTYYADSVKGRFTISRDNAKNTVYLQMHSLKPEDTAVYYCATRKGGTLYNYWGQGTQVTVSS
polyreactivity (PSR sort gate): high polyreactivity

QVQLVESGGGLVQAGGSLRLSCAASGLIFPIYTMGWYRQAPGKERELVAAISSRGGSTYYADSVKGRFTISRDNAKNTVYLQMNSLKPEDTAVYYFGSYDYSGQGTQVTVSS
polyreactivity (PSR sort gate): high polyreactivity

QVQLQESGGGLVQAGGSLRLSCAASGPISRRSTMGWYRQAPGKERELVTAITRGTNTNYADSVKGRFTISRDNAKNTEYLQMNSLKPVDTAVYYCAAYGVLNPSRGDAVFHRYWGQGTQVSVSS
polyreactivity (PSR sort gate): low polyreactivity

QVQHVESVGGLVQAGGSLRLSCAASGFISDWYAMGWYRQAPGKERELVATIDWIGGSTYADSVKGRFTISRDNAKNTVYLQMNSLKPEDTAVYYCAADSYFIAWYGAHYAYDYWGQGTQVTVSS
polyreactivity (PSR sort gate): low polyreactivity

QVQLVESAAGLVQAGGSLRLRCAASGRIFSDYAMGWYRQAPGKERELVATITSGDSTNYADSVKGRFTISGDNAKNTDYLQMNSLKPEDTAVYYCNADRFADYDYWGQGTQLTVSS
polyreactivity (PSR sort gate): low polyreactivity

QVQLVESGGGIVQAGGSLRLSCAASGFIFGSYAMGWYRQAPGKERELVAAINSVDRTYYADSVKGRFTISRDNAKNTVYLQMNSLKPEDTAVYYCAATIAPTPGYIIYDYWGQGTQVTVSS
polyreactivity (PSR sort gate): high polyreactivity

LVQLVESGGGLVQAGGSLRLSCAASGAIFYQDAQGCYRQAPGKERELVAAISKNGRSTYYADSVKGRFTISRDNAKNTVYLQMNSLKPEATAVYYCAARVLKGYYWGQGTQVTVSS
polyreactivity (PSR sort gate): high polyreactivity

QVQLVESGGGLVQAGGSLRLSCAASGFIFRKYAMGWYRQAPGKERELVAAITSSGGSTYYADSVKGRFTISRDNAKNTVYLQMNSLKPEDTAVYYCAARLKQSGHDYWGQGTQVTVSS
polyreactivity (PSR sort gate): high polyreactivity

QVQLVESGGGLVQAGGSLRLSCAASGIIFYGYAMGWYRQAPGKERELVAAIRWRGGSTYYADSVKGRFTISRDNAKNTVYLQMNSLKPADTAVYFCAADQTRYTSVFSSTRYDYWGQGTQVTVSS
polyreactivity (PSR sort gate): low polyreactivity

QVQLVESGGGLVQAGGSLRLRCAASGSIFYGYAMGWYRQAPGKESEFVAAITTTGGSTYYADSVKGRFTISRDNSKYTVYLQMNSLKPEDTAVYYCATSGDRLVWGQVTQVTVSS
polyreactivity (PSR sort gate): low polyreactivity

QVQLVESGGGLVQAGGSLRLSCAASGFIFSLYAMGWYRQAPGKERELVGAITRSGGSTYYADSVKGRFTISRDNAKNTVYLQMNSLKAEDTAVYYCAVSACYHYNYWGQGTQVTVSS
polyreactivity (PSR sort gate): high polyreactivity

QVQLVESGGGLVQAGGSLRLSCAASGTFVTYMGWYRQAPGKERELVAVISASGDSVKGRFTISRDNAKNTVYLQMNSLNPEDTAVYYCARELYRRVWHHWAYWAAYDYWGQGTQVTVSS
polyreactivity (PSR sort gate): low polyreactivity

QDQLVESGGGLVQAGGSLRLSCAASGSNFPTNAMGWYRPAPGKERELVADITIRGGGTSYADSVKGRFTISRDNAKNTVYLHMNSLKPEDTAFYYCARSKSTELKRLLFDSWGQGTQVTVSS
polyreactivity (PSR sort gate): low polyreactivity

QVQLVESGGGLVQAGGSLRLSCAASGRTFGRNTMGWYRQAPGKERELVAAIDWSGGSTYYADSVKGRFTISRDNAKNTVYLQMNSLKPEDTAVYYCAAASRYPVNYYYWGQGTQVTVSS
polyreactivity (PSR sort gate): high polyreactivity

QVQLVESGGGLVQAGGSLRLTCAASGSIIVTYAMGWYRQAPGKERELVAVINSGTSTNYADSVKGRFTISRDNAKNTVYLQMNSLKPEDTAVYYCNADPLVYYYQDYRFCMGYWGQGTQVTVSS
polyreactivity (PSR sort gate): low polyreactivity

QVQLVESGGGLVQAGASLRLSCAASGRTFAYNAMGWSRQAPGKERELVATISNGGTTNYADSVKGRFTISRDNAKNTVYLQMNSLKPEDTAVYYCNRRSYTQVLMDYWGQGTQVTVSS
polyreactivity (PSR sort gate): high polyreactivity

QVQLVESGGGLVQAGGSLRLSCAASGFTFSRNAMGWYRQAPGKERELVAAISQSGGSTYYADSVKGRFTISRDNAKNTVYLQMHSLKPEDTAVYYCAAVGRLARRDYWGQGTQVTVSS
polyreactivity (PSR sort gate): high polyreactivity

QVQHVQSGGGLVQAGGSLRLSCAAAGFIYNNAMGWYRQAPGKETELVATISTSGTDTYYADSVKGRFTISRDNAKNTVYLQMNSLKPEDTAVYYCNADTEIYDSYSSYWTRYEYWGQGTQVTVSS
polyreactivity (PSR sort gate): low polyreactivity

QVQLVESGGGLVQAGGSLRLSCAASGITFGSYAMGWYRQAPGKERELVAAIRWRGGNTYYADSVKGRFTISRDNAKNTVYLQMNSLKPEDTAVYYCAARRYGYRYDQPYSNDYWGQGTLVTVSS
polyreactivity (PSR sort gate): low polyreactivity

QVQLVESGGGLVQAGGSLRLSCAASGRIFGINVMGWYRQAPGKERELVARITGRGGRTYYADSVKGRFTISRDNAKNTVYLQMNSLKPEDTAVYYCNAQPSTTGTYDYWGQGTQVTVSS
polyreactivity (PSR sort gate): high polyreactivity

QVQLVESGGGLVQAGGSLRLSCAASGRTFYSYAMGWYRQAPGKERELVAAISFRDGRTYYADSVKGRFTISRDNAKNTVYLQMNSLKPEDTAVYYCAAQLSHYYSLYYYWGQGTQVTVSS
polyreactivity (PSR sort gate): high polyreactivity

QVQLVESGGGLVQAGGSLRLSCAASGRIFGNYAMGWYRQAPGKESELVAAISGGGSTYYADSVKGRFTISRDNAKNTVYLQMNSLKPEDTAVYYCAARFLWSVFGRKGGYWGQGTQVTVSS
polyreactivity (PSR sort gate): low polyreactivity

QVQLVESGGGLVQAGGSLRLSCAASGRIFTTYAMGWYRQAPGKERELVARISSGGTTYYADSVQGRFTISRDNAKNTVYLQMNSLKPEDTAVYYCNVRAVTPTRSRPFRYDYWGQGTQVTVSS
polyreactivity (PSR sort gate): high polyreactivity

QVQLVESGGGLVQAGGSLRLICAASGSIFSWYTMGWYRQAPGKERELVARITTSGGTTRYADSVKGRFTISRDNAKHTAFIQMNSLKPVDTAVYYCAADRSPYWRGYVRYNYWGQGTQVTVSS
polyreactivity (PSR sort gate): high polyreactivity

QVQLVESGGGLVQAGGSLRLSCAASGIIFTRNAMGWYRPAPGKERELVAASSRSGGSTYYADSVKGRFTISRDNAKNTVYLQMNSLKPEDTAVYDGAAAWSEYPYDYWGQGTQVTVSS
polyreactivity (PSR sort gate): low polyreactivity

QVQLVESGGGLVQAGGSLRLSCAASGRIFVQYAMGWYRQAPGKERELVAAISYSGGRTYYADSVKGRFTISRDNAKNTVYLQMNSLKPEDTAVYYCAAVRAGYYGYWGKGTQVTVSS
polyreactivity (PSR sort gate): high polyreactivity

QVQLVESGGGLVQAGGSLRLSCAASGSTFGRNARGWYRQAPGKERELVAAITASGGTTYYADSVKGRFTISRDNAKNTVYLQMNSLKPEDTAVYYCNVSYLVYRWNFGWSMDFWGQGTQLTVSS
polyreactivity (PSR sort gate): low polyreactivity

QVQLVESGGGLVQAGGSLRLSCAASGLTFPSNAMGWYRQAPGKERELVAAISKRGGRTFYADSVKGRFTISRDNAKNTVYLQMNSLKPEDTAVYYCATPYAYPGTVQYAGYNYWGQGTQVTVSS
polyreactivity (PSR sort gate): high polyreactivity

QVQLVESGGCLVQAGGSLRLSCAASGSTSDIYARGWYSPAPGKEREFVAARSLTGGTTYYAASVKGRFTISCDNAKNTVYLQMNSLKPEDTAVYYCNADVGWWGYDDDYWGQGTQVTVSS
polyreactivity (PSR sort gate): high polyreactivity
